Measured values: patent publication US12365732 (23ANDME, dated 2025)

T1: cy-CD96 (soluble, extracellular domain) (cynomolgus monkey, UniProt P40200 22-516 (human entry), biotinylated in Octet and blocking ELISA)
T1 construct: the assays name only cy-CD96; also called biotinylated cy-CD96
T1 chain: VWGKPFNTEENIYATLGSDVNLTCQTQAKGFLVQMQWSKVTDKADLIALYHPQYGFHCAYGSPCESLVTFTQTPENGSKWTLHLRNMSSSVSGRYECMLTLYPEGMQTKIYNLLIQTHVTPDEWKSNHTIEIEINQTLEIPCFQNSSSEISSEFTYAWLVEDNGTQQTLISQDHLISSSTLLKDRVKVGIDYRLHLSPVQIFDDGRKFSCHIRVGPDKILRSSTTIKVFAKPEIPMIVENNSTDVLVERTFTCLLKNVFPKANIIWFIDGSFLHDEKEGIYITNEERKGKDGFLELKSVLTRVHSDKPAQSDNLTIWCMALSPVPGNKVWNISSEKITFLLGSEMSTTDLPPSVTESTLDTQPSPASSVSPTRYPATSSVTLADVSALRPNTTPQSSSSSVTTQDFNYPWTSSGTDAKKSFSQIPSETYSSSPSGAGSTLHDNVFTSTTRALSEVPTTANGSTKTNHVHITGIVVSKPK

T2: cynomolgus monkey CD96 on cynomolgus monkey PBMCs (cynomolgus monkey, UniProt A0A2K5TWV6 22-569)
T2 construct: whole, on cells
T2 sequence: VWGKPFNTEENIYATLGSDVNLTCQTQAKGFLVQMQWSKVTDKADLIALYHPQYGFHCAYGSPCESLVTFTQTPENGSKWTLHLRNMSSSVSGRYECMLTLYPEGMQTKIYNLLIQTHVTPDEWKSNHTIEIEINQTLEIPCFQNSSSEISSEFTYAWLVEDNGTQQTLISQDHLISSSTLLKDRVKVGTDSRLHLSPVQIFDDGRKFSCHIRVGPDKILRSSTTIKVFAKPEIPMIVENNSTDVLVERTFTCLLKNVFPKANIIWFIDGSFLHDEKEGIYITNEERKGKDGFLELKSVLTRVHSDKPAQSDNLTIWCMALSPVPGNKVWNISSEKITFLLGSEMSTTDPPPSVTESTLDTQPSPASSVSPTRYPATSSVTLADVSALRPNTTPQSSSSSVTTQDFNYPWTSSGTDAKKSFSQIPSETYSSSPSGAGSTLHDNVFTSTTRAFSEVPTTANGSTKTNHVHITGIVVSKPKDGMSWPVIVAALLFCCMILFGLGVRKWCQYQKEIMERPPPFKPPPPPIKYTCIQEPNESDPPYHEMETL

B1: mAb1.v7.2 Fab (Fab, V domains shown)
VH: EVQLVQSGAEVKKPGASVKVSCKASGFTFTNNWRHWVRQAPGQGLEWIGMIHFNSGITNINEKFKNRVTMTTDTSTSTAYMELRSLRSEDTAVYYCRSDGVYEGYFDYWGQGTLVTVSS
VL: DIQLTQSPSSLSASVGDRVTITCKASQNVGTAIVWYQQKPGKAPKVLIYSASTRYTGVPSRFSGSGSGTDFTLTISSLQPEDFATYYCQQYSSSPLTFGQGTKVEIK
notes: also called M34R/P52aF/T97V
B2: mAb1.v7.9 Fab (Fab, V domains shown)
VH: EVQLVQSGAEVKKPGASVKVSCKASGFTFTNNWRHWVRQAPGQGLEWIGMIHMNSGITNINEKFKNRVTMTTDTSTSTAYMELRSLRSEDTAVYYCRSDGVYEGYFDYWGQGTLVTVSS
VL: DIQLTQSPSSLSASVGDRVTITCKASQNVGTAIVWYQQKPGKAPKVLIYSASTRYTGVPSRFSGSGSGTDFTLTISSLQPEDFATYYCQQYSSSPLTFGQGTKVEIK
notes: also called M34R/P52aM/T97V
B3: mAb1.v7.NGS11 IgG (antibody, V domains shown)
VH: EVQLVQSGAEVKKPGASVKVSCKASGFTFTNNFMHWVRQAPGQGLEWIGFIHANSGITNINEKFKNRVTMTTDTSTSTAYMELRSLRSEDTAVYYCRSDGVYEGYFDYWGQGTLVTVSS
VL: DIQLTQSPSSLSASVGDRVTITCKASQNVGTAIVWYQQKPGKAPKVLIYSASTRYTGVPSRFSGSGSGTDFTLTISSLQPEDFATYYCQQYSSSPLTFGQGTKVEIKG
notes: human IgG1 N297G
B4: mAb1.v7.70 Fab (Fab, V domains shown)
VH: EVQLVQSGAEVKKPGASVKVSCKASGFTFTNRWMHWVRQAPGQGLEWIGMIHANSGITNINEKFKNRVTMTTDTSTSTAYMELRSLRSEDTAVYYCRSDGVYEGYFDYWGQGTLVTVSS
VL: DIQLTQSPSSLSASVGDRVTITCKASQNVGTAIVWYQQKPGKAPKVLIYSASTRYTGVPSRFSGSGSGTDFTLTISSLQPEDFATYYCQQYSSSPLTFGQGTKVEIK
notes: also called N32R/P52aA/T97V
B5: mAb1.v7.16 Fab (Fab, V domains shown)
VH: EVQLVQSGAEVKKPGASVKVSCKASGFTFTNNWRHWVRQAPGQGLEWIGMIHPNSGITNINEKFKNRVTMTTDTSTSTAYMELRSLRSEDTAVYYCRSDGVYEGYFDYWGQGTLVTVSS
VL: DIQLTQSPSSLSASVGDRVTITCKASQNVGTAIVWYQQKPGKAPKVLIYSASTRYTGVPSRFSGSGSGTDFTLTISSLQPEDFATYYCQQYSSSPLTFGQGTKVEIK
notes: also called M34R/T97V
B6: mAb1.v7.NGS10 IgG (antibody, V domains shown)
VH: EVQLVQSGAEVKKPGASVKVSCKASGFTFTNNFMHWVRQAPGQGLEWIGFIHANSGITNINEKFKNRVTMTTDTSTSTAYMELRSLRSEDTAVYYCRSDGIYEGYFDYWGQGTLVTVSS
VL: DIQLTQSPSSLSASVGDRVTITCKASQNVGTAIVWYQQKPGKAPKVLIYSASTRYTGVPSRFSGSGSGTDFTLTISSLQPEDFATYYCQQYSSSPLTFGQGTKVEIKG
notes: human IgG1 N297G
B7: mAb1.v7.48 Fab (Fab, V domains shown)
VH: EVQLVQSGAEVKKPGASVKVSCKASGFTFTNRWMHWVRQAPGQGLEWIGMIHHNSGITNINEKFKNRVTMTTDTSTSTAYMELRSLRSEDTAVYYCRSDGVYEGYFDYWGQGTLVTVSS
VL: DIQLTQSPSSLSASVGDRVTITCKASQNVGTAIVWYQQKPGKAPKVLIYSASTRYTGVPSRFSGSGSGTDFTLTISSLQPEDFATYYCQQYSSSPLTFGQGTKVEIK
notes: also called N32R/P52aH/T97V
B8: mAb1.v7.NGS9 IgG (antibody, V domains shown)
VH: EVQLVQSGAEVKKPGASVKVSCKASGFTFTNNFMHWVRQAPGQGLEWIGMIHANSGITNINEKFKNRVTMTTDTSTSTAYMELRSLRSEDTAVYYCRSDGVYEGYFDYWGQGTLVTVSS
VL: DIQLTQSPSSLSASVGDRVTITCKASQNVGTAIVWYQQKPGKAPKVLIYSASTRYTGVPSRFSGSGSGTDFTLTISSLQPEDFATYYCQQYSSSPLTFGQGTKVEIKG
notes: human IgG1 N297G
B9: h10G1 IgG (humanized 10G1) (antibody, V domains shown)
VH: EIQLVQSGSELKKPGASVKVSCKASGYPFTTYGMSWVRQAPGQGLEWMGWINTDSGVPTYADDFKGRFVFSLDTSVSTAYLQISSLKAEDTAVYFCARNIYYGWGNFDYWGQGTLVTVSS
VL: EIVMTQSPDFQSVTPKEKVTITCRASQDIYRNLHWYQQKPDQTPKLLIKHASDSISGIPSRFSGSGSGTDFTLTINSLEAEDAAAYYCLQGYSMPYTFGGGTKVEIKG
notes: human IgG1 N297G

What was measured:
[1] = target: T1, cy-CD96 (soluble, extracellular domain); test: phage competition ELISA, soluble CD96 vs coated hu-CD96
Outline: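 Phage supernatant or purified phage was preincubated 2 h at room temperature with soluble hu-CD96 or cy-CD96 in BSA/Tween ELISA buffer, then moved to hu-CD96-coated wells for 15 min to capture unbound phage. Detection used HRP anti-M13 and TMB at OD450. Phage IC50 came from OD450 versus serially diluted antigen concentration.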

[2] = target: T2, cynomolgus monkey CD96 on cynomolgus …; test: FACS, Ab 16 nM
Method: The ability of the anti-CD96 antibodies to bind primary immune cells from human and cynomolgus monkey with lower level of receptor expression was measured. Human PBMCs (StemCell Technologies, catalog #70025) and cynomolgus monkey PBMCs (Primate Biologicals, catalog #CM-MC) were incubated with human TruStain FcX (Biolegend, catalog #422302) for 10 minutes at 4° C., followed by incubation with an anti-CD96 antibody for 20 minutes at 4° C. Cells were washed and the anti-CD96 antibody binding was detected by incubation with anti-mouse IgG-PE (Thermo Fisher, catalog #M30204) or anti-human IgG (Fab) 2-PE (Thermo Fisher, catalog #H10104) for 20 minutes at 4° C. Cells were washed, and immune subtypes were labeled with anti-CD3 (BD, catalog #557705), anti-CD4 (Biolegend, catalog #317424) and anti-CD8 (BD, catalog #557760) for 20 minutes at 4° C. Cell binding was analyzed by flow cytometry with a CytoFLEX (Beckman Coulter). Binding curves were calculated as a percentage of cells positive for bound antibody in the cell type of interest.

| Binder | IC50 [1] [nM] | % positive [2] [%] |
| --- | --- | --- |
| B1 | 1.8 |  |
| B2 | 0.37 |  |
| B3 |  | 80.8 |
| B4 | 0.4 |  |
| B5 | 1.6 |  |
| B6 |  | 78.5 |
| B7 | 0.3 |  |
| B8 |  | 76.1 |
| B9 |  | 66.1 |
